According to IntAct's records for PubMed 22986341:

B1: Wnt inhibitory factor 1 (Homo sapiens), Q9Y5W5 (parent)
chain: MARRSAFPAAALWLWSILLCLLALRAEAGPPQEESLYLWIDAHQARVLIGFEEDILIVSEGKMAPFTHDFRKAQQRMPAIPVNIHSMNFTWQAAGQAEYFYEFLSLRSLDKGIMADPTVNVPLLGTVPHKASVVQVGFPCLGKQDGVAAFEVDVIVMNSEGNTILQTPQNAIFFKTCQQAECPGGCRNGGFCNERRICECPDGFHGPHCEKALCTPRCMNGGLCVTPGFCICPPGFYGVNCDKANCSTTCFNGGTCFYPGKCICPPGLEGEQCEISKCPQPCRNGGKCIGKSKCKCSKGYQGDLCSKPVCEPGCGAHGTCHEPNKCQCQEGWHGRHCNKRYEASLIHALRPAGAQLRQHTPSLKKAEERRDPPESNYIW
B2: Wnt inhibitory factor 1 (Homo sapiens), Q9Y5W5 (parent)
chain: B1 chain
partner: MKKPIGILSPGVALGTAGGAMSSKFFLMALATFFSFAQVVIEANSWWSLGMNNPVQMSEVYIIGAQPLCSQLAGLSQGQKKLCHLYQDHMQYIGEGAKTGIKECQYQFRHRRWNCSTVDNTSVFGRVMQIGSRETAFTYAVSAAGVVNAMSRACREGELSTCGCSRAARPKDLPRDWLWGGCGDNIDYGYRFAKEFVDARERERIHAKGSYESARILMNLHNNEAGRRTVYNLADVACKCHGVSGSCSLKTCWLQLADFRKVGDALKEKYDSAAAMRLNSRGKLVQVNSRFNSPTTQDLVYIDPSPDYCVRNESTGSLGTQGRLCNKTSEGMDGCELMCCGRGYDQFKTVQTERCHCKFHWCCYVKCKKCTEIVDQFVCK

Variants of: B1
Conditions: with wnt3a_mouse Wnt3a

Row | effect of a mutation on the interaction | Variant
1 | decreasing interaction | W15R

Variants of: B2
Conditions: with wnt5a_mouse Wnt5a

Row | effect of a mutation on the interaction | Variant
2 | increasing interaction | W15R
